Test results taken from patent US20230272099A1 (Chugai, published 2023).
Substitutions are numbered along the chain they refer to.

T1: human FcgRIIa type H extracellular domain (human, UniProt P12318 34-217)
T1 construct: extracellular domain; also called hFcgRIIaH
T1 sequence (looked up): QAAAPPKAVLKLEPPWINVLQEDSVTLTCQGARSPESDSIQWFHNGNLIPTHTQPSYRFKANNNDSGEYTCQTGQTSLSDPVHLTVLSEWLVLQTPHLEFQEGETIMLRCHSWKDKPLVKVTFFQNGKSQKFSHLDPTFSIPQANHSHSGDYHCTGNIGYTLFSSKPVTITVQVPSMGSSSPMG

T2: human FcgRIIb extracellular domain (human, UniProt P31994 43-217)
T2 construct: extracellular domain; also called hFcgRIIb
T2 sequence (looked up): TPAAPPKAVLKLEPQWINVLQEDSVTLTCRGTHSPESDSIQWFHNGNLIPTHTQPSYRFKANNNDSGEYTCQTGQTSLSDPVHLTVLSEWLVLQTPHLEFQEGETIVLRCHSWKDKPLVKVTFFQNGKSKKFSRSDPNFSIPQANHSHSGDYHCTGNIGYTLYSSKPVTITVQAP

T3: human FcgRIIa type R extracellular domain (human, UniProt P12318 34-217)
T3 construct: extracellular domain; also called hFcgRIIaR
T3 sequence (looked up): T1 sequence (looked up) with H134R

B1: A375-SCF056aPh/B167-Lamlib (antibody, human IgG1, lambda)
heavy: EVQLVESGGGLVKPGGSLRLSCAASGFTFSTFTMNWVRQAPGKGLEWVSSISSKSTYIEYADSFKVRFTISRDNAKNSLYLQMNSLRAEDTAVYYCARYGAKNFLNWVFDYWGQGTLVTVSSASTKGPSVFPLAPSSKSTSGGTAALGCLVKDYFPEPVTVSWNSGALTSGVHTFPAVLQSSGLYSLSSVVTVPSSSLGTQTYICNVNHKPSNTKVDKRVEPKSCDKTHTCPPCPAPELWNGPSVFLFPPKPKDTLMISRTPEVTCVVVDVSDEDPEVKFNWYVDGVEVHNAKTKPREEQYNSTYRVVSVLTVLHRDWLNGKEYKCKVSNKALPKPIEKTISKAKGQPREPQVYTLPPSREEMTKNQVSLTCLVKGFYPSDIAVEWESNGQPENNYKTTPPVLDSDGSFFLYSKLTVDKSRWQQGNVFSCSVMHEALHNHYTQKSLSLSP
light: QSALTQPPSASGSPGQTVTISCTGTRYDVGYYEYVSWYQQHPGKAPKLMIYETSKRLSGVPDRFSGSKSGNTASLTVSGLQAEDEADYYCSSYRYEHQVSFGGGTKLTVLGQPKAAPSVTLFPPSSEELQANKATLVCLISDFYPGAVTVAWKADSSPVKAGVETTTPSKQSNNKYAASSYLSLTPEQWKSHRSYSCQVTHEGSTVEKTVAPTECS
notes: copies: 2 + 2
B2: A375-TT14/B167-Lamlib (antibody, human IgG1, lambda)
heavy: B1 heavy with R219K, L239Y, W240L, N241G, P243D, T255V, V269I, D273H, T312P, R316Q
light: B1 light
notes: copies: 2 + 2
B3: A375-SCF059aPh/B167-Lamlib (antibody, human IgG1, lambda)
heavy: B1 heavy with D418K
light: B1 light
notes: copies: 2 + 2
B4: A375-SCF059a/B167-Lamlib (antibody, human IgG1, lambda)
heavy: B1 heavy with W240L, D418K
light: B1 light
notes: copies: 2 + 2
B5: A375-SCF057aPh/B167-Lamlib (antibody, human IgG1, lambda)
heavy: B1 heavy with P348R
light: B1 light
B6: A375-TT16/B167-Lamlib (antibody, human IgG1, lambda)
heavy: B1 heavy with R219K, L239Y, W240L, N241G, G242D, P243D, T255V, D273H, T312P, R316Q
light: B1 light
notes: copies: 2 + 2
B7: A375-SCF060a/B167-Lamlib (antibody, human IgG1, lambda)
heavy: B1 heavy with Q300L, K331T
light: B1 light
notes: copies: 2 + 2
B8: A375-SCF057a/B167-Lamlib (antibody, human IgG1, lambda)
heavy: B1 heavy with W240L, P348R
light: B1 light

Each binder was assayed against T1, human FcgRIIa type H extracellular … (assay: SPR 25C).

binding per 1RU antibody | relative binding (A375-G1T3/B167-Lamlib=1) | Binder
0.0314 RU | 0.55 | B1
0.0042 RU | 0.07 | B2
0.0332 RU | 0.59 | B3
0.0502 RU | 0.88 | B4
0.0365 RU | 0.64 | B5
0.0126 RU | 0.22 | B6
0.0463 RU | 0.82 | B7
0.0525 RU | 0.93 | B8

What follows are binders tested against T4, human FcgRIIIa V158 extracellular domain (human, UniProt P08637 17-208) (assay: SPR 25C).
T4 construct: extracellular domain; also called hFcgRIIIaV
T4 sequence (P08637 17-208 F176V): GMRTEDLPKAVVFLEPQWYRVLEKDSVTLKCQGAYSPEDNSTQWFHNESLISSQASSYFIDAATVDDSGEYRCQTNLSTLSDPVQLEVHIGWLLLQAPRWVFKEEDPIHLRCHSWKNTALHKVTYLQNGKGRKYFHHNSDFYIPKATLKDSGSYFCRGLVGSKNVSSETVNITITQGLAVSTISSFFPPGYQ

binding per 1RU antibody | relative binding (A375-G1T3/B167-Lamlib=1) | Binder
0.001 RU | 0.01 | B1
0.0003 RU | 0 | B2
0.0028 RU | 0.04 | B3
0.0021 RU | 0.03 | B4
0.0005 RU | 0.01 | B5
-0.0002 RU | 0 | B6
0.0008 RU | 0.01 | B7
0.0025 RU | 0.04 | B8

These binders were tested against T5, human FcgRIa extracellular domain (human, UniProt P12314 16-292) (assay: SPR 25C).
T5 construct: extracellular domain; also called hFcgRIa
T5 sequence (P12314 16-292): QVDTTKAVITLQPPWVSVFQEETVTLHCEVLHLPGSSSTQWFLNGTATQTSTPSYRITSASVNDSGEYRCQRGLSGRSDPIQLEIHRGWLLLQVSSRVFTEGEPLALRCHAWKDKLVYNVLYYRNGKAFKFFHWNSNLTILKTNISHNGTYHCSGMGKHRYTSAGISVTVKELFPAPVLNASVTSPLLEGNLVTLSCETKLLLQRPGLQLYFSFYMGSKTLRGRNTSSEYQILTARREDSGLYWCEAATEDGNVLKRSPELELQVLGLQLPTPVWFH

binding per 1RU antibody | relative binding (A375-G1T3/B167-Lamlib=1) | Binder
0.0019 RU | 0.02 | B1
0.0045 RU | 0.05 | B2
0.0089 RU | 0.11 | B3
0.038 RU | 0.47 | B4
0.0021 RU | 0.03 | B5
0.0034 RU | 0.04 | B6
0.0021 RU | 0.03 | B7
0.0405 RU | 0.5 | B8

What follows are binders tested against T6, human FcgRIIIa F158 extracellular domain (human, UniProt P08637 17-208) (assay: SPR 25C).
T6 construct: extracellular domain; also called hFcgRIIIaF
T6 sequence (P08637 17-208): as the sequence (P08637 17-208 F176V) above, with V160F counted along it

binding per 1RU antibody | relative binding (A375-G1T3/B167-Lamlib=1) | Binder
0.001 RU | 0.05 | B1
0 RU | 0 | B2
0.0003 RU | 0.01 | B3
0.001 RU | 0.05 | B4
-0.0003 RU | -0.02 | B5
0.0001 RU | 0 | B6
0.0011 RU | 0.05 | B7
0.0013 RU | 0.06 | B8

What follows are binders tested against T2, human FcgRIIb extracellular domain (assay: SPR 25C).

binding per 1RU antibody | relative binding (A375-G1T3/B167-Lamlib=1) | Binder
0.0292 RU | 2.67 | B1
0.0805 RU | 7.34 | B2
0.0291 RU | 2.66 | B3
0.0358 RU | 3.27 | B4
0.0345 RU | 3.15 | B5
0.109 RU | 9.94 | B6
0.0472 RU | 4.31 | B7
0.0412 RU | 3.76 | B8

Each binder was assayed against T3, human FcgRIIa type R extracellular … (assay: SPR 25C).

binding per 1RU antibody | relative binding (A375-G1T3/B167-Lamlib=1) | Binder
0.0299 RU | 0.64 | B1
0.0067 RU | 0.14 | B2
0.0319 RU | 0.69 | B3
0.0319 RU | 0.69 | B4
0.0364 RU | 0.79 | B5
0.0359 RU | 0.77 | B6
0.0459 RU | 0.99 | B7
0.0367 RU | 0.79 | B8

Each binder was assayed against human FcRn (human, UniProt P55899 24-290; P61769 21-119) (assay: SPR 25C pH 6.0, steady state).
How it was run: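 Antibody (~400 RU) captured on anti-Fab-lambda sensor chip, human FcRn injected as analyte.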

Kd | Binder
1000 nM | B1
1770 nM | B2
1050 nM | B3
1030 nM | B4
909 nM | B5
1510 nM | B6
1010 nM | B7
928 nM | B8
